Numbering of substitutions follows the chain as printed.
B1: chimeric sp34 (ch-sp34) (antibody, V domains shown)
VH: EVQLVESGGGLVQPKGSLKLSCAASGFTFNTYAMNWVRQAPGKGLEWVARIRSKYNNYATYYADSVKDRFTISRDDSQSILYLQMNNLKTEDTAMYYCVRHGNFGNSYVSWFAYWGQGTLVTVSS
VL: QAVVTQESALTTSPGETVTLTCRSSTGAVTTSNYANWVQEKPDHLFTGLIGGTNKRAPGVPARFSGSLIGDKAALTITGAQTEDEAIYFCALWYSNLWVFGGGTKLTVL
B2: humanized sp34 BG53P (antibody, V domains shown)
VH: B1 VH with K15G, K19R, S77A, Q78K, I80S, N87S, K89R, T90A
VL: QAVVTQSPATLSVSPGERATLSCRSSTGAVTTSNYANWVQEKPGQLFTGLIGGTNKRAPGIPARFSGSLSGDEATLTISSLQSEDFAIYFCALWYSNLWVFGGGTKVEIK
B3: humanized sp34 BG56P (antibody, V domains shown)
VH: B1 VH with K15G, K19R, S77A, Q78K, S79N, I80S, N87S, K89R, T90A, M95V
VL: B2 VL with Q1E, A2I, V4L, E41Q, L46A, F47P, T48R, I88V, F90Y
B4: humanized sp34 scFv BG561P (scFv-Fc) (Fc fusion, not shown: a dimerising Fc or GST)
scFv: EVQLVESGGGLVQPGGSLRLSCAASGFTFNTYAMNWVRQAPGKGLEWVARIRSKYNNYATYYADSVKDRFTISRDDAKNSLYLQMNSLRAEDTAVYYCVRHGNFGNSYVSWFAYWGQGTLVTVSSGGGGSGGGGSGGGGSEIVLTQSPATLSVSPGERATLSCRSSTGAVTTSNYANWVQQKPGQAPRGLIGGTNKRAPGIPARFSGSLSGDEATLTISSLQSEDFAVYYCALWYSNLWVFGGGTKVEIK

Experiments:
CD3ε/δ (SPR analyte) [1] = target: CD3ε/δ (SPR analyte) (UniProt P07766); test: SPR, antibody captured by anti-human Fc
CD3ε/δ (SPR analyte) [2] = target: CD3ε/δ (SPR analyte) (UniProt P07766); test: SPR, antibody captured by anti-human Fc; remark: listed apart in the source
CD3ε/δ (SPR analyte) [3] = target: CD3ε/δ (SPR analyte) (UniProt P07766); test: SPR

Chain of CD3ε/δ (SPR analyte) (P07766 23-126, stated change not applied, chain 1 of 2): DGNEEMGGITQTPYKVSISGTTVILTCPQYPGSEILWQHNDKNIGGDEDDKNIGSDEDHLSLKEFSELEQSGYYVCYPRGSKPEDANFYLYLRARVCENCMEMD
Chain of CD3ε/δ (SPR analyte) (P04234 22-105, stated change not applied, chain 2 of 2, further chain): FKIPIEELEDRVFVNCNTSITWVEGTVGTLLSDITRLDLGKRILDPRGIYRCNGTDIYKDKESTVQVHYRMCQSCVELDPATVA

| Binder | Kd (CD3ε/δ (SPR analyte) [1]) [nM] | koff (CD3ε/δ (SPR analyte) [1]) [s⁻¹] | kon (CD3ε/δ (SPR analyte) [1]) [M⁻¹ s⁻¹] | Kd (CD3ε/δ (SPR analyte) [2]) [nM] | koff (CD3ε/δ (SPR analyte) [2]) [s⁻¹] | kon (CD3ε/δ (SPR analyte) [2]) [M⁻¹ s⁻¹] | Kd (CD3ε/δ (SPR analyte) [3]) [nM] | koff (CD3ε/δ (SPR analyte) [3]) [s⁻¹] | kon (CD3ε/δ (SPR analyte) [3]) [M⁻¹ s⁻¹] |
| --- | --- | --- | --- | --- | --- | --- | --- | --- | --- |
| B1 | 27.1 | 0.00296 | 109000 |  |  |  |  |  |  |
| B2 | 25.4 | 0.00252 | 99300 | 9.62 | 0.00105 | 109000 |  |  |  |
| B3 |  |  |  | 18.2 | 0.00112 | 61600 | 18.2 | 0.00112 | 61600 |
| B4 |  |  |  |  |  |  | 25.9 | 0.00188 | 72500 |
